Data on one molecule can be found in patent US20260201028A1 (SINGAPORE HEALTH SERVICES PTE, published 2026).

The test has as its target human TRPM4 (transient receptor potential melastatin 4) in transfected HEK 293 cells (human, UniProt Q8TD43 1-1214). The test can be described thus: cell-based or functional assay.

Sequence of human TRPM4 (transient receptor potential melastatin 4) in transfected HEK 293 cells (Q8TD43 whole entry): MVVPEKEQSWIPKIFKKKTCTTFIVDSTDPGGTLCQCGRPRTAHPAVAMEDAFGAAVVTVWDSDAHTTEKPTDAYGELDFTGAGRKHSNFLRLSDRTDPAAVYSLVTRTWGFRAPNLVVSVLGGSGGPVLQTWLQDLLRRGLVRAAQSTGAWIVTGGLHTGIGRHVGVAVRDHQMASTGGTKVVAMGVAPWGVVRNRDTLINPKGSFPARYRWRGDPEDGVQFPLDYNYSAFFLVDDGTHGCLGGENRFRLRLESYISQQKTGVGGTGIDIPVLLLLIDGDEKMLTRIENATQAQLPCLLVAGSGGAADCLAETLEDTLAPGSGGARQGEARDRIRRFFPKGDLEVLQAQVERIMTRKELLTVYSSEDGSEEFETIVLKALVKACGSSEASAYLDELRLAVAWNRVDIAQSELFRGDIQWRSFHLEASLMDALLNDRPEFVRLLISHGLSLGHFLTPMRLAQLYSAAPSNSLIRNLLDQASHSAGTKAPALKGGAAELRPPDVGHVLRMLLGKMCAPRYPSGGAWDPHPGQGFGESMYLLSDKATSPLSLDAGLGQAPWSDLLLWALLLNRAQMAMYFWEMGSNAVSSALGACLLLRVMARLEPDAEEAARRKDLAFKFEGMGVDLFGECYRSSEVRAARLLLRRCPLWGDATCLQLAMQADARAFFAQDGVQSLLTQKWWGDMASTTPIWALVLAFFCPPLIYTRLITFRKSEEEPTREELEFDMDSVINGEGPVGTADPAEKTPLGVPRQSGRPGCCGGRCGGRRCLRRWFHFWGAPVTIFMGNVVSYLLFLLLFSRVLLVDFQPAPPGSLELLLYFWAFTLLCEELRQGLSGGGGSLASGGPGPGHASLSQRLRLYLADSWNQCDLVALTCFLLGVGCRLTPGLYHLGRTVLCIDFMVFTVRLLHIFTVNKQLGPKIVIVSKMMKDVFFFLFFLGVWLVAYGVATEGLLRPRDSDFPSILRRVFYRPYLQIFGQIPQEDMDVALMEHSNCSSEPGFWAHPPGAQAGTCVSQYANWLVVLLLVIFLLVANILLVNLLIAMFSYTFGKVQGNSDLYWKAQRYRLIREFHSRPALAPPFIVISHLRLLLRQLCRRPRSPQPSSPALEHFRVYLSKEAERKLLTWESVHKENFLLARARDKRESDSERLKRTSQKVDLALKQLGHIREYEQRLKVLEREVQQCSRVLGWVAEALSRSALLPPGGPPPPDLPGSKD

B1: humanized anti-TRPM4 antibody clone A2 (VH1 + VL1) (antibody, human IgG1, kappa, V domains shown)
VH: QVQLQESGPGLVKPSQTLSLTCTVSGYSITSDYAWNWIRQHPGKGLEWIGYLSYSGVTSYNPSLKGRVTISVDTSKNQFSLKLSSVTAADTAVYYCARKGTYYRYEGSYWYFDVWGQGTTVTVSS
VL: DIQMTQSPSSLSASVGDRVTITCHANQNIDVWLSWYQQKPGKAPKLLIYKTSNLHTGVPSRFSGSGSGTDFTFTISSLQPEDIATYYCQQGQSYPLTFGGGTKLEIKR
With B1, the “IC50, dose-dependent inhibition of hypoxia-induced TRPM4 current increase” value was found to be 1.23 µg/mL.
